# B1: Pistol ribozyme (parent)
# chain: GGGUCGUUGUUCCAUAAUCGCGUGGAUAUGGCACGCAAGUUUCUACCGGGCACCGUAAAUGUCCGACUGGAGCCGUUCGGGCGGCUAUAAACAGACCUCAGGCCCGAAGCGUGGCGGCACCUGCCGCCGGUGGUAAAAAAGAUCGGAAGAGCACACGUCU
# Variants of: B1
# Assay: aptazyme ON/OFF ratio, guanine; higher = stronger switching; co-transcriptional cleavage with and without guanine
row,Variant,aptazyme ON/OFF ratio
1,U7A U8C G9U U11A C12U C13A,1.37
2,U7A U8C G9U U11A C12U C13G,1.22
3,U7A U8C G9U U11A C12U C13U,1.16
4,U7A U8C G9U U10C U11C C12U C13U,1.1
5,U7A U8C G9U U10C U11C C12U C13G,1.08
6,U7A U8C G9U U10G U11G C12U C13A,1.07
7,U7A U8C G9U U10G U11G C12U C13G,1.11
8,U7A U8C G9U U10G U11G C12U C13U,1.16
9,U7A U8C G9U U10G U11A C12A C13G,1.13
10,U7A U8C G9U U10G U11A C12A C13A,1.04
11,U7A U8C G9U U10G U11A C12A C13U,1.41
12,U7A U8C G9U U10G U11G C12G C13G,1.22
13,U7A U8C G9U U10G U11G C12G C13U,1.29
14,U7A U8C G9U U10G U11G C12G C13A,1.15
15,U7A U8C U10C U11G C12U,1.3
16,U7A U8C U10C U11G C12G,1.25
17,U7A U8C U10C U11G C12A,1.2
18,U7A U8C U10A U11G C12A C13G,1.15
19,U7A U8C U10A U11G C12A C13A,1.17
20,U7A U8C U10A U11G C12A C13U,1.22
21,U7A U8C U11A,1.14

row,Variant,aptazyme ON/OFF ratio
1,U7A U8C U10A C12U C13A,1.11
2,U7A U8C U10A C12U C13G,1.08
3,U7A U8C U10A C12U C13U,1.22
4,U7A U8C U10G U11G C12U C13U,1.24
5,U7A U8C U10G U11G C12U C13A,1.23
6,U7A U8C U10G U11G C12U C13G,1.23
7,U7A U8C G9U U11G C13G,1.12
8,U7A U8C G9U U11G C13A,1.2
9,U7A U8C G9U U11G C13U,1.27
10,U7A U8C U10A U11G C13G,1.24
11,U7A U8C U10A U11G C13A,1.26
12,U7A U8C U10A U11G C13U,1.31
13,U7A U8C U10G U11C C13A,1.18
14,U7A U8C U10G U11C C13U,1.27
15,U7A U8C U10G U11C C13G,1.18
16,U7A U8C U10A U11A C12U C13G,1.33
17,U7A U8C U10A U11A C12U C13U,1.17
18,U7A U8C U10A U11A C12U C13A,1.18
19,U7A U8C G9U U10G U11G C13U,1.17
20,U7A U8C G9U U10G U11G C13A,1.18
21,U7A U8C G9U U10G U11G C13G,1.14

row,Variant,aptazyme ON/OFF ratio
1,U7A U8C U10C U11G C12G C13A,1.26
2,U7A U8C U10C U11G C12G C13U,1.14
3,U7A U8C U10C U11G C12G C13G,1.24
4,U7A U8C G9U U10G U11A,1.06
5,U7A U8C G9U U10G U11C,1.03
6,U7A U8C G9U U10G U11G,1.11
7,U7A U8C U11A C12A C13U,1.27
8,U7A U8C U11A C12A C13A,1.2
9,U7A U8C U11A C12A C13G,1.16
10,U7A U8C U10C C13A,1.08
11,U7A U8C U10C C13G,1.32
12,U7A U8C U10C C13U,2.97
13,U7A U8C G9U U10G U11G C12G,1.22
14,U7A U8C G9U U10G U11G C12U,1.25
15,U7A U8C G9U U10G U11G C12A,1.18
16,U7A U8C G9U U10G U11A C12U C13U,1.2
17,U7A U8C G9U U10G U11A C12U C13G,1.09
18,U7A U8C G9U U10G U11A C12U C13A,1.06
19,U7A U8C U10C U11G C12A C13G,1.28
20,U7A U8C U10C U11G C12A C13A,1.33
21,U7A U8C U10C U11G C12A C13U,1.18

row,Variant,aptazyme ON/OFF ratio
1,U7A U8C G9U U10G U11A C12G C13U,1.21
2,U7A U8C G9U U10G U11A C12G C13G,0.993
3,U7A U8C G9U U10G U11A C12G C13A,1.22
4,U7A U8C G9U U10G U11G C12A C13U,1.37
5,U7A U8C G9U U10G U11G C12A C13A,1.12
6,U7A U8C G9U U10G U11G C12A C13G,1.11
7,U7A U8C G9U U10C U11G C12U,1.17
8,U7A U8C G9U U10C U11G C12A,1.04
9,U7A U8C G9U U10C U11G C12G,1.06
10,U7A U8C G9U U10C U11G C12A C13U,1.27
11,U7A U8C G9U U10C U11G C12A C13G,1.11
12,U7A U8C G9U U10C U11G C12A C13A,1.13
13,U7A U8C G9U U10C U11G C12G C13U,1.06
14,U7A U8C G9U U10C U11G C12G C13A,1.17
15,U7A U8C G9U U10C U11G C12G C13G,1.11
16,U7A U8C G9U U10G U11C C12A C13G,1.15
17,U7A U8C G9U U10G U11C C12A C13A,1.14
18,U7A U8C G9U U10G U11C C12A C13U,1.26
19,U7A U8C U10G U11C C12A,2.43
20,U7A U8C U10G U11C C12U,1.28
21,U7A U8C U10G U11C C12G,2.72
